Measurements: article PMC8809517, “Cofactor-independent RNA editing by a synthetic S-type PPR protein”

Legend:
Experiment in all cases: high-throughput RNA pulldown from lysate on Ni-NTA beads; HRP: 50 mM Tris pH 8, 150 mM NaCl, 1 mM beta-mercaptoethanol, 50 ug/ml BSA, 3 ug/ml yeast RNA, 0.5% heparin; ITC and FP: Tris pH 8, 200 mM KCl, 5% glycerol; MST: 50 mM Tris pH 8, 200 mM NaCl, 1 mM DTT, BSA, heparin, 0.05% Tween 20
Details in all cases: tags: N-terminal His-eGFP
[1] = target: T1, GFP-9S library array, motif 4 ND N98P;D124C (synthetic construct, N98P;D124C)
T1 chain: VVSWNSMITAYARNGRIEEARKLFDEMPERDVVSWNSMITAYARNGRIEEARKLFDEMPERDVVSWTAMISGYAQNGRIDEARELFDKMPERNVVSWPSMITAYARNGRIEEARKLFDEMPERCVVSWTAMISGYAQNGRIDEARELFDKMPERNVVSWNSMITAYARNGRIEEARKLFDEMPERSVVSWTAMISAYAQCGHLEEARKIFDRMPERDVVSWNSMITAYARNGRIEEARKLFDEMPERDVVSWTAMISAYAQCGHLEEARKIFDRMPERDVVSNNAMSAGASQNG

[2] = target: T2, GFP-9S library array, motif 4 ND N98P;D124V (synthetic construct, N98P;D124V)
T2 chain: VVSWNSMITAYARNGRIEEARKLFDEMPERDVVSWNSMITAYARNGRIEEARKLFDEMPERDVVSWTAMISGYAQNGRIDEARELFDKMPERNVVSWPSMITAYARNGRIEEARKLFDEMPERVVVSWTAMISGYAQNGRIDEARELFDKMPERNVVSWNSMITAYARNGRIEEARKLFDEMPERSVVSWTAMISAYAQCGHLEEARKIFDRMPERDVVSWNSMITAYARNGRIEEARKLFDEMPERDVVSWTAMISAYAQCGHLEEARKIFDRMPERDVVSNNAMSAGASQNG

[3] = target: T3, GFP-9S library array, motif 4 ND N98K;D124L (synthetic construct, N98K;D124L)
T3 chain: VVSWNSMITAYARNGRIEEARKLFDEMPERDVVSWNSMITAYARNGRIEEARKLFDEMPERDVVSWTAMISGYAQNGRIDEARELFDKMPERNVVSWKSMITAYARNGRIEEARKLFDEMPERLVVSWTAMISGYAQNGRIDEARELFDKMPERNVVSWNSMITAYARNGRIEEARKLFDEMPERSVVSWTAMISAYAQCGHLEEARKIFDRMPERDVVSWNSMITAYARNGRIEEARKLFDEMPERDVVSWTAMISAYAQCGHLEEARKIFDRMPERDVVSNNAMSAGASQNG

[4] = target: T4, GFP-9S library array, motif 4 ND N98L;D124M (synthetic construct, N98L;D124M)
T4 chain: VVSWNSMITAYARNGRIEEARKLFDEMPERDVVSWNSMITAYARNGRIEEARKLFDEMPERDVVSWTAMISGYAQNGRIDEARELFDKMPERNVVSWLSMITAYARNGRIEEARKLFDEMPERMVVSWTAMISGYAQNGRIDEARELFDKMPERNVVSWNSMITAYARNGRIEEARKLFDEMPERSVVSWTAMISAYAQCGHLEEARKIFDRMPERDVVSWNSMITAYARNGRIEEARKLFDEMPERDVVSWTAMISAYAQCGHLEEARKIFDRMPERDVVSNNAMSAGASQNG

[5] = target: T5, GFP-9S library array, motif 4 ND N98I (synthetic construct, N98I)
T5 chain: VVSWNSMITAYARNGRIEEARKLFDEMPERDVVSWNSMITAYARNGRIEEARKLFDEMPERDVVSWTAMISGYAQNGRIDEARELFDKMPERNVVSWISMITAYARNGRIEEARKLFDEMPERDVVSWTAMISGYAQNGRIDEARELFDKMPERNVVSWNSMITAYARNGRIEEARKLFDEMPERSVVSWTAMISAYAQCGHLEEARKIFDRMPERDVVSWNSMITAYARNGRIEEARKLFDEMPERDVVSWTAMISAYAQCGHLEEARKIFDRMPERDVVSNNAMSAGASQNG

B1: IR-rpoA-A (ssRNA)
RNA: AUUAAACGUGA
For B1, the Kd ([1]; label: 5' IRDye 800CW) was 660 nM, the Kd ([2]; label: 5' IRDye 800CW) was 407 nM and the Kd ([3]; label: 5' IRDye 800CW) was 151 nM. The Kd ([4]; label: 5' IRDye 800CW) was 381 nM and the Kd ([5]; label: 5' IRDye 800CW) was 175 nM.

B2: Cy5-rpoA-G (ssRNA)
RNA: AUUAGACGUGA
B2 was tested, and the Kd ([1]; label: 5' Cy5) was 297 nM, the Kd ([2]; label: 5' Cy5) was 150 nM and the Kd ([3]; label: 5' Cy5) was 73.5 nM. The Kd ([4]; label: 5' Cy5) was 122 nM and the Kd ([5]; label: 5' Cy5) was 127 nM.

B3: Cy5-rpoA (ssRNA)
RNA: AUUACACGUGA
B3 showed a Kd ([1]; label: 5' Cy5) of 332 nM, a Kd ([2]; label: 5' Cy5) of 121 nM and a Kd ([3]; label: 5' Cy5) of 83.5 nM. The Kd ([4]; label: 5' Cy5) was 104 nM and the Kd ([5]; label: 5' Cy5) was 153 nM.

B4: IR-rpoA-U (ssRNA)
RNA: AUUAUACGUGA
B4 was tested, and the Kd ([1]; label: 5' IRDye 800CW) was 874 nM, the Kd ([2]; label: 5' IRDye 800CW) was 291 nM and the Kd ([3]; label: 5' IRDye 800CW) was 174 nM. For the same binder, the Kd ([4]; label: 5' IRDye 800CW) was 176 nM and the Kd ([5]; label: 5' IRDye 800CW) was 53.5 nM.
